In patent US20100119506A1 (published 2010):

T1: PAR-2 peptide (SEQ ID NO:42) coupled to Transferrin as carrier (coupled to Transferrin as carrier)
T1 construct: Transferrin carrier not further described
T1 peptide: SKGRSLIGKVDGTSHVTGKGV

T2: PAR-4 peptide (SEQ ID NO:44)
T2 peptide: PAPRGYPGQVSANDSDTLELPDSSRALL

T3: Human PAR-2 on cells (human, UniProt P55085 26-397)
T3 construct: also called HEK-PAR-2 (#3); human PAR-2 transfected HEK293 cells
T3 sequence: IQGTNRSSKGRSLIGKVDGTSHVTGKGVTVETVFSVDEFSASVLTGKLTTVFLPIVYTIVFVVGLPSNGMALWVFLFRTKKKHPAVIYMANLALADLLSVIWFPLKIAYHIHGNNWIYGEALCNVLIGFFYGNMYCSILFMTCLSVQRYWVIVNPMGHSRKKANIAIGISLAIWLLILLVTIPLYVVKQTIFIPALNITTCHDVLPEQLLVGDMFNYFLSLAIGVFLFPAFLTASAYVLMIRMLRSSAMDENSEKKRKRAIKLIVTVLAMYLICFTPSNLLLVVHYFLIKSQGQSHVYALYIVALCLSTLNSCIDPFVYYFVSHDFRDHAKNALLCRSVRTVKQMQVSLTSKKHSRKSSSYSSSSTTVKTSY

T4: FLAG-tagged PAR-2 over-expressed on HEK transfectants (Homo sapiens (Human), UniProt P55085 37-397)
T4 sequence: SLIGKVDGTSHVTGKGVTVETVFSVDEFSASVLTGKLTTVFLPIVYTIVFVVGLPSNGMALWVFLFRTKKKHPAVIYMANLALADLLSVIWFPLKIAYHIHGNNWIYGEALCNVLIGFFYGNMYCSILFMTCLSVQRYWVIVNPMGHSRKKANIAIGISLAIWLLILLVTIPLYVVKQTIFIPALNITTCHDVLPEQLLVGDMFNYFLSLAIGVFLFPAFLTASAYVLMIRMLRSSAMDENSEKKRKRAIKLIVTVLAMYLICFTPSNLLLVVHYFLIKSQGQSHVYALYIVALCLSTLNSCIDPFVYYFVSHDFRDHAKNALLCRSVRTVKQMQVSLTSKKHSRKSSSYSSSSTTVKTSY


Assays:
[1] = target: T1, PAR-2 peptide (SEQ ID NO:42) coupled to …; assay: ELISA on peptide
[2] = target: T2, PAR-4 peptide (SEQ ID NO:44); assay: ELISA on peptide
[3] = target: labeled peptide representing the N-terminus of PAR-2 (FRET assay); assay: cell-based or functional assay
[4] = target: T3, Human PAR-2 on cells; assay: binding of Fab to PAR-2 transfected HEK cells (HEK-PAR-2 #3)
[5] = target: T3, Human PAR-2 on cells; assay: cell binding, Fab against IgG4p of the same clone
[6] = target: T3, Human PAR-2 on cells; assay: binding of IgG4p to PAR-2 transfected HEK cells (HEK-PAR-2 #3)
[7] = target: T3, Human PAR-2 on cells; assay: cell binding of IgG4_Pro, HEK-PAR-2 (#3)
[8] = target: T4, FLAG-tagged PAR-2 over-expressed on HEK …; assay: cell-based or functional assay
[9] = target: T3, Human PAR-2 on cells; assay: cell-based or functional assay

Binder	binding result [1]	binding result [2]	FRET Peptide Cleavage IC50 [3]	EC50 [4]	Ratio of EC50 Fab / EC50 IgG [5]	EC50 [6]	EC50 [7]	FLAG Cell-Based Cleavage Approx. IC50 [8]	FLIPR A549 cells IC50 [9]
Ab4996 IgG4_Pro (antibody, V domains shown, IgG4_Pro (human IgG4 constant regions, Ser241Pro hinge), lambda; also called IgG4p Ab4996) VH: QVQLVESGGGLVQPGGSLRLSCAASGFTFSNHAMHWVRQAPGKGLEWVSAISHPGKFTYYADSVKGRFTISRDNSKNTLYLQMNSLRAEDTAVYYCARHGDGMDYFDFWGQGTLVTVSS VL: DIELTQPPSVSVAPGQTARISCSGDNIGTKYVYWYQQKPGQAPVLVIYDDNNRPSGIPERFSGSNSGNTATLTISGTQAEDEADYYCQSYDSQTMVFGGGTKLTVLG	binds	no binding	< 30 nM						
Ab4994 Fab (Fab, V domains shown, Fab) VH: QVELVESGGGLVQPGGSLRLSCAASGFTFSSYAMNWVRQAPGKGLEWVSAISYSGHLTGYADSVKGRFTISRDNSKNTLYLQMNSLRAEDTAVYYCARIQNDPMDVWGQGTLVTVSS VL: DIELTQPPSVSVAPGQTARISCSGDNLGKKYVQWYQQKPGQAPVLVIYDDSNRPSGIPERFSGSNSGNTATLTISGTQAEDEADYYCSSWDVGSDGWVFGGGTKLTVLG				1.9 nM	4.8				
Ab4994 IgG4_Pro (antibody, V domains shown, IgG4_Pro: variable regions fused to human IgG4 constant regions with Ser241Pro in the hinge, lambda light chain; also called IgG4p Ab4994) VH: QVQLVESGGGLVQPGGSLRLSCAASGFTFSSYAMNWVRQAPGKGLEWVSAISYSGHLTGYADSVKGRFTISRDNSKNTLYLQMNSLRAEDTAVYYCARIQNDPMDVWGQGTLVTVSS VL: DIELTQPPSVSVAPGQTARISCSGDNLGKKYVQWYQQKPGQAPVLVIYDDSNRPSGIPERFSGSNSGNTATLTISGTQAEDEADYYCSSWDVGSDGWVFGGGTKLTVLG			< 30 nM			0.4 nM	0.4 nM	< 1 nM	2.2 nM
Ab4997 Fab (Fab, V domains shown, Fab) VH: QVELVESGGGLVQPGGSLRLSCAASGFTFSSYAMNWVRQAPGKGLEWVSAISYNGKLKGYADSVKGRFTISRDNSKNTLYLQMNSLRAEDTAVYYCARIQNDPMDVWGQGTLVTVSS VL: DIELTQPPSVSVAPGQTARISCSGDNLGKKYVQWYQQKPGQAPVLVIYDDSNRPSGIPERFSGSNSGNTATLTISGTQAEDEADYYCSSWDVGSDGWVFGGGTKLTVLG				3.03 nM	8				
Ab4997 IgG4_Pro (antibody, V domains shown, IgG4_Pro (human IgG4 constant regions, Ser241Pro hinge), lambda; also called IgG4p Ab4997) VH: QVQLVESGGGLVQPGGSLRLSCAASGFTFSSYAMNWVRQAPGKGLEWVSAISYNGKLKGYADSVKGRFTISRDNSKNTLYLQMNSLRAEDTAVYYCARIQNDPMDVWGQGTLVTVSS VL: DIELTQPPSVSVAPGQTARISCSGDNLGKKYVQWYQQKPGQAPVLVIYDDSNRPSGIPERFSGSNSGNTATLTISGTQAEDEADYYCSSWDVGSDGWVFGGGTKLTVLG			< 30 nM			0.38 nM	0.4 nM	< 1 nM	2.4 nM
Ab5003 Fab (Fab, V domains shown, Fab) VH: QVELVESGGGLVQPGGSLRLSCAASGFTFSSYAMNWVRQAPGKGLEWVSAISYKGHLTGYADSVKGRFTISRDNSKNTLYLQMNSLRAEDTAVYYCARIQNDPMDVWGQGTLVTVSS VL: DIELTQPPSVSVAPGQTARISCSGDNLGKKYVQWYQQKPGQAPVLVIYDDSNRPSGIPERFSGSNSGNTATLTISGTQAEDEADYYCSSWDVGSDGWVFGGGTKLTVLG				7.03 nM	15.3				
Ab5003 IgG4_Pro (antibody, V domains shown, IgG4_Pro (human IgG4 constant regions, Ser241Pro hinge), lambda; also called IgG4p Ab5003) VH: QVQLVESGGGLVQPGGSLRLSCAASGFTFSSYAMNWVRQAPGKGLEWVSAISYKGHLTGYADSVKGRFTISRDNSKNTLYLQMNSLRAEDTAVYYCARIQNDPMDVWGQGTLVTVSS VL: DIELTQPPSVSVAPGQTARISCSGDNLGKKYVQWYQQKPGQAPVLVIYDDSNRPSGIPERFSGSNSGNTATLTISGTQAEDEADYYCSSWDVGSDGWVFGGGTKLTVLG			< 30 nM			0.46 nM	0.5 nM	< 1 nM	2.3 nM
Ab5006 Fab (Fab, V domains shown, Fab) VH: QVELVESGGGLVQPGGSLRLSCAASGFTFSSYAMNWVRQAPGKGLEWVGAISFDGMLTGYADSVKGRFTISRDNSKNTLYLQMNSLRAEDTAVYYCARIQNDPMDVWGQGTLVTVSS VL: DIELTQPPSVSVAPGQTARISCSGDNLGKKYVQWYQQKPGQAPVLVIYDDSNRPSGIPERFSGSNSGNTATLTISGTQAEDEADYYCSSWDVGSDGWVFGGGTKLTVLG				11.9 nM					
Ab5007 Fab (Fab, V domains shown, Fab) VH: QVELVESGGGLVQPGGSLRLSCAASGFTFSSYAMNWVRQAPGKGLEWVSAISFSGHLTGYADSVKGRFTISRDNSKNTLYLQMNSLRAEDTAVYYCARIQNDPMDVWGQGTLVTVSS VL: DIELTQPPSVSVAPGQTARISCSGDNLGKKYVQWYQQKPGQAPVLVIYDDSNRPSGIPERFSGSNSGNTATLTISGTQAEDEADYYCSSWDVGSDGWVFGGGTKLTVLG				9.66 nM	19.3				
Ab5007 IgG4_Pro (antibody, V domains shown, IgG4_Pro (human IgG4 constant regions, Ser241Pro hinge), lambda; also called IgG4p Ab5007) VH: QVQLVESGGGLVQPGGSLRLSCAASGFTFSSYAMNWVRQAPGKGLEWVSAISFSGHLTGYADSVKGRFTISRDNSKNTLYLQMNSLRAEDTAVYYCARIQNDPMDVWGQGTLVTVSS VL: DIELTQPPSVSVAPGQTARISCSGDNLGKKYVQWYQQKPGQAPVLVIYDDSNRPSGIPERFSGSNSGNTATLTISGTQAEDEADYYCSSWDVGSDGWVFGGGTKLTVLG			< 30 nM			0.5 nM	0.5 nM	< 1 nM	3.7 nM
Ab4999 Fab (Fab, V domains shown, Fab) VH: QVELVESGGGLVQPGGSLRLSCAASGFTFSSYAMNWVRQAPGKGLEWVSTISYSSSATSYADSVKGRFTISRDNSKNTLYLQMNSLRAEDTAVYYCARIQNDPMDVWGQGTLVTVSS VL: DIELTQPPSVSVAPGQTARISCSGDNLGKKYVQWYQQKPGQAPVLVIYDDSNRPSGIPERFSGSNSGNTATLTISGTQAEDEADYYCQTWDYSSIRDETNVFGGGTKLTVLG				0.06 nM	0.3				
Ab5149 IgG4_Pro (cross-cloned: light chain of Ab4999 with heavy chain of Ab4997) (antibody, V domains shown, IgG4_Pro format) VH: QVQLVESGGGLVQPGGSLRLSCAASGFTFSSYAMNWVRQAPGKGLEWVSAISYNGKLKGYADSVKGRFTISRDNSKNTLYLQMNSLRAEDTAVYYCARIQNDPMDVWGQGTLVTVSS VL: DIELTQPPSVSVAPGQTARISCSGDNLGKKYVQWYQQKPGQAPVLVIYDDSNRPSGIPERFSGSNSGNTATLTISGTQAEDEADYYCQTWDYSSIRDETNVFGGGTKLTVLG			< 30 nM				0.7 nM	< 1 nM	3.3 nM
Ab5150 IgG4_Pro (cross-cloned: light chain of Ab4999 with heavy chain of Ab5003) (antibody, V domains shown, IgG4_Pro format) VH: QVQLVESGGGLVQPGGSLRLSCAASGFTFSSYAMNWVRQAPGKGLEWVSAISYKGHLTGYADSVKGRFTISRDNSKNTLYLQMNSLRAEDTAVYYCARIQNDPMDVWGQGTLVTVSS VL: DIELTQPPSVSVAPGQTARISCSGDNLGKKYVQWYQQKPGQAPVLVIYDDSNRPSGIPERFSGSNSGNTATLTISGTQAEDEADYYCQTWDYSSIRDETNVFGGGTKLTVLG			< 30 nM				0.3 nM	< 1 nM	2.3 nM
Ab5005 IgG4_Pro (antibody, V domains shown, IgG4_Pro (human IgG4 constant regions, Ser241Pro hinge), lambda; also called IgG4p Ab5005) VH: QVQLVESGGGLVQPGGSLRLSCAASGFTFSSYAMNWVRQAPGKGLEWVSTISYSSSATSYADSVKGRFTISRDNSKNTLYLQMNSLRAEDTAVYYCARIQNDPMDVWGQGTLVTVSS VL: DIELTQPPSVSVAPGQTARISCSGDNLGKKYVQWYQQKPGQAPVLVIYDDSNRPSGIPERFSGSNSGNTATLTISGTQAEDEADYYCQSWALVGSSESNVFGGGTKLTVLG			< 30 nM			0.06 nM	0.1 nM	< 1 nM	2.5 nM
